# Measured values published in IntAct's records for PubMed 25502805.
# Biological target: hbaz_human HBZ (UniProt P02008)
row,Substance,effect of a mutation on the interaction
1,"Hemoglobin subunit beta (Homo sapiens), P68871 D100Y",disrupting interaction strength
2,"Hemoglobin subunit beta (Homo sapiens), P68871 F123S",disrupting interaction strength
3,"Hemoglobin subunit beta (Homo sapiens), P68871 S10C",disrupting interaction strength
4,"Hemoglobin subunit beta (Homo sapiens), P68871 V127G",disrupting interaction strength

# The remaining lines, values ahead:
row,effect of a mutation on the interaction,Substance
1,disrupting interaction strength,"Hemoglobin subunit beta (Homo sapiens), P68871 E102Q"
2,disrupting interaction strength,"Hemoglobin subunit beta (Homo sapiens), P68871 E122V"
3,disrupting interaction strength,"Hemoglobin subunit beta (Homo sapiens), P68871 F104L"
4,disrupting interaction strength,"Hemoglobin subunit beta (Homo sapiens), P68871 H118Y"
5,disrupting interaction strength,"Hemoglobin subunit beta (Homo sapiens), P68871 L115P"
6,with no effect,"Hemoglobin subunit beta (Homo sapiens), P68871 N103Y"
7,disrupting interaction strength,"Hemoglobin subunit beta (Homo sapiens), P68871 P101A"
8,disrupting interaction strength,"Hemoglobin subunit beta (Homo sapiens), P68871 V114E"

# Biological target: vps29_human VPS29 (UniProt Q9UBQ0)
row,effect of a mutation on the interaction,Substance
1,with no effect,Vacuolar protein sorting-associated protein 35 (Homo sapiens) (from UniProt Q96QK1) D620N
2,with no effect,Vacuolar protein sorting-associated protein 35 (Homo sapiens) (from UniProt Q96QK1) R524W
